Measurements published in US20250355001A1 (GTINVENT, published 2025).
Where no end group is shown, it is not given here. The star is where a group is joined. Biotin = O=C1N[C@H]2[C@H](CS[C@H]2CCCCC(=O)*)N1

What was measured:
tau peptide 306-323 = molecular target: T1, tau peptide 306-323; assay: peptide ELISA
T1 peptide: Biotin-VQIVYKPVDLSKVTSKCG

tau peptide 313-336 = molecular target: T2, tau peptide 313-336 (human); assay: peptide ELISA
T2 peptide: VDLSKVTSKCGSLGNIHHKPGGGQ

dGA (tau 297-390) [1] = molecular target: T3, dGA (tau 297-390) (human, UniProt P10636 614-707); assay: SPR, scAb captured, tau analyte
In short: (§1)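 scAb captured on flow cell 2 of an antibody-coated chip, flow cell 1 as reference; tau analyte injected 120 s association, 420 s dissociation, glycine pH 2.0 regeneration, in multi-cycle or single-cycle kinetics format. Responses fitted to a 1:1 binding model for kinetics and affinity.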

dGAE (tau 297-391) [2] = molecular target: T4, dGAE (tau 297-391) (human, UniProt P10636 614-708); assay: Biacore, for dGAE
T4 construct: monomer; also called dGAE95

[3] = molecular target: T5, full length human tau protein 2N4R (hT40) (human, UniProt P10636 1-758); assay: direct ELISA
T5 construct: recombinant; also called T441
In short: (§2)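 Direct or streptavidin-capture binding ELISA with scAb dilution series; signal from anti-human C kappa HRP measured as absorbance.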

dGA (tau 297-390) [4] = molecular target: T3, dGA (tau 297-390); assay: direct ELISA
In short: as §2

dGAE (tau 297-391) [5] = molecular target: T4, dGAE (tau 297-391); assay: SPR, scAb captured, tau analyte
In short: as §1

dGAE (tau 297-391) [6] = molecular target: T4, dGAE (tau 297-391); assay: sandwich ELISA, dGAE titrated, S1D12 mAb capture
[7] = molecular target: T5, full length human tau protein 2N4R …; assay: SPR, summary table
In short: as §1

tau fragment 337-368 [8] = molecular target: tau fragment 337-368 (human); assay: direct ELISA
[9] = molecular target: T6, tau fragment 266-359 (R1-3) (human, UniProt P10636 583-676); assay: direct ELISA
tau fragment 369-391 [10] = molecular target: T7, tau fragment 369-391 (human); assay: direct ELISA
T7 peptide: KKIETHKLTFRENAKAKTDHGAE

tau fragment 369-390 [11] = molecular target: T8, tau fragment 369-390 (human); assay: direct ELISA
T8 peptide: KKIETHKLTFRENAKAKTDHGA

[12] = molecular target: T5, full length human tau protein 2N4R …; assay: SPR, scAb captured, tau analyte
In short: as §1

[13] = molecular target: T5, full length human tau protein 2N4R …; assay: Biacore
In short: as §1

tau fragment 1-49 = molecular target: T9, tau fragment 1-49 (human); assay: direct ELISA
T9 construct: also called Tau 1-49
T9 peptide: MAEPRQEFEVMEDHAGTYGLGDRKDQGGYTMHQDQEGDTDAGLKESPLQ

mouse tau = molecular target: T10, mouse tau (mouse, UniProt P10637 2-733); assay: sandwich ELISA on mouse plasma, S1D12 mAb capture
T10 construct: endogenous protein of mouse brain or plasma; also called endogenous mouse tau

dGA (tau 297-390) [14] = molecular target: T3, dGA (tau 297-390); assay: sandwich ELISA #1, S1D12 mAb capture, sample C
[15] = molecular target: T11, human tau (hT40) with P301S and G335D of Line 66 mice (human, UniProt P10636 1-758); assay: sandwich ELISA on brain homogenate, S1D12 mAb capture
T11 construct: transgene product in brain homogenate or plasma; also called L66 human tau

[16] = molecular target: T5, full length human tau protein 2N4R …; assay: sandwich ELISA, S1D12 mAb capture, scAb detection
In short: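 Read-out was HRP anti-HuCk with absorbance at 450 nm (positive above 0.3 after background subtraction) or chemiluminescence, including directly HRP-conjugated scAbs.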

[17] = molecular target: T5, full length human tau protein 2N4R …; assay: sandwich ELISA, hT40 titrated, S1D12 mAb capture, CB7 scAb at 1 µg/ml
dGAE (tau 297-391) [18] = molecular target: T4, dGAE (tau 297-391); assay: ELISA
Procedure: (§3) A series of binding ELISA was performed using various truncated versions of the tau protein and 13mer peptide libraries spanning the entire hT40 molecule for mapping the epitopes of anti-tau scAbs (Full list of protein antigens used is given in Table 14). In general, ELISA plates were coated with 1 μg/ml hT40 or dGA or dGAE or other truncated versions of the protein and in the case of biotinylated peptides, plates were coated with 5 μg/ml Streptavidin followed by 1 μg/ml biotinylated peptide. The plates were blocked with 2% MPBS and scAb samples added at desired starting concentrations and double diluted across the plate. Binding was detected using anti-Human C Kappa HRP conjugated secondary antibody and the resulting immunoreaction was developed and absorbance values measured as described above.

[19] = molecular target: T5, full length human tau protein 2N4R …; assay: direct binding ELISA
[20] = molecular target: T5, full length human tau protein 2N4R …; assay: hT40 ELISA
[21] = molecular target: T5, full length human tau protein 2N4R …; assay: hT40 ELISA; remark: listed apart in the source
tau fragment 186-350 = molecular target: T12, tau fragment 186-350 (human, UniProt P10636 503-667); assay: direct ELISA
T12 construct: also called m186-350

[22] = molecular target: T6, tau fragment 266-359 (R1-3); assay: direct ELISA; remark: listed apart in the source
dGAE (tau 297-391) [23] = molecular target: T4, dGAE (tau 297-391); assay: direct ELISA
tau fragment 337-368 [24] = molecular target: tau fragment 337-368 (human); assay: direct ELISA; remark: listed apart in the source
tau peptide 341-353 = molecular target: T13, tau peptide 341-353 (human); assay: ELISA on biotinylated peptide over streptavidin
T13 peptide: Biotin-SEKLDFKDRVQSK
Procedure: as §3

[25] = molecular target: T5, full length human tau protein 2N4R …; assay: ELISA
Procedure: as §3

dGA (tau 297-390) [26] = molecular target: T3, dGA (tau 297-390); assay: ELISA
Procedure: as §3

tau fragment 369-390 [27] = molecular target: T8, tau fragment 369-390; assay: ELISA
Procedure: as §3

tau fragment 369-391 [28] = molecular target: T7, tau fragment 369-391; assay: ELISA
Procedure: as §3

B1: E1B8 scAb (scFv, not shown: small tags and cut ends)
scFv: QVQLQESGPSLVKPSQTLSLTCTVSGFSLTNYPVGWVRQAPGKALEWIGNIENDGSANYASALKSRLSITRDTSKNQVSLSLSSATTEDTAVYYCGREFGGSDGYTYFVDIDYWGPGLLVTVSSEGKSSGASGESKVDDQAVLTQPSSVSKSLGQSVSITCSGSSSNVGYGNYVSWFQQVPGSAPKILIYGATSRASGVPDRFSGSRSGNTATLTITSLQAEDEADYYCASYDGSSSGVFGSGTRLTVLG
notes: scAb
binding result (tau peptide 306-323): no binding (tested: 25 ug/ml)
EC50 (read off the curve) (tau peptide 313-336): ~2 µg/mL
Kd (dGA (tau 297-390) [1]): 17.7 nM
koff (dGA (tau 297-390) [1]): 0.00242 s⁻¹
kon (dGA (tau 297-390) [1]): 137000 M⁻¹ s⁻¹

B2: E2E8 scAb (scFv, not shown: small tags and cut ends)
scFv: QVQLQESGPSLVKPSQTLSLTCTVSGFSLTDRGVAWVRQAPGKALEWVGTMRSGGTIDYNPALKSRLSITRDTSKSQVFLSLSSVTTEDMAMYYCARGYLSGDRYAWGRGLLVTVSSEGKSSGASGESKVDDQAVLTQPSSVSKSLGQSVSIACSGSRSDIGYGNYVSWFQQIPGSAPKLLIYDTNTRASGVPDRFSGARSGNTATLTINSLQAEDEADYYCANIDSSRSHLFGSGTRLTVLG
notes: scAb
Kd (dGAE (tau 297-391) [2]): 0.4 nM
binding result [3]: no binding (tested: 25 ug/ml)
binding result (dGA (tau 297-390) [4]): no binding (tested: 25 ug/ml)
Kd (dGAE (tau 297-391) [5]): 0.401 nM
koff (dGAE (tau 297-391) [5]): 0.000191 s⁻¹
kon (dGAE (tau 297-391) [5]): 477000 M⁻¹ s⁻¹
EC50 (read off the curve) (dGAE (tau 297-391) [6]): ~0.7 nM

B3: NS2A1 scAb (scFv, not shown: small tags and cut ends)
scFv: QVQLQESGPSLVKPSQTLSLTCTVSGFSLSTNSVGWVRQAPGKAPEWVAGIDTDGEEGFNPVLKSRLSITRDTSKSQVSLSLSNVTSEDTAVYYCGRSYRTDGLAYGYVQAIDYWGPGLLVTISSEGKSSGASGESKVDDQSVLTQPSSVSGSPGQTVSITCSGSYIGSSGVGWFQQLPGSGLRTIIVASDGRPSGVPDGFSMSKSGNTATLTISSLQAEDEADYFCGSSDRTQYTGLFGSGTRLTVLG
notes: scAb
Kd [7]: 2.9 nM
binding result (tau fragment 337-368 [8]): no binding (tested: 25 ug/ml)
binding result [9]: no binding (tested: 25 ug/ml)
binding result (tau fragment 369-391 [10]): no binding (tested: 25 ug/ml)
binding result (tau fragment 369-390 [11]): no binding (tested: 25 ug/ml)
Kd [12]: 2.9 nM
koff [12]: 0.000739 s⁻¹
kon [12]: 252000 M⁻¹ s⁻¹
Kd (dGA (tau 297-390) [1]): 5.4 nM
koff (dGA (tau 297-390) [1]): 0.00102 s⁻¹
kon (dGA (tau 297-390) [1]): 188000 M⁻¹ s⁻¹

B4: CB7 scAb (scFv, not shown: small tags and cut ends)
scFv: QVQLQESGPSLVKPSQTLSLTCTVSGFSLTNYRVGWVRQAPGKALEWVSNIRSGGTTWYNPALKSRLSITADTSKSQVSLSLSSVTTEDTAVYYCARDSSGDLYAYDYWGPGLLVTVSSEGKSSGASGESKVDDQAVLTQPSSVSRSLGQSVSMTCSGSSSNVGYGNYMAWFQQVPGSAPKLLIYGATSRASGVPDRFSGSRSGNTATLTISSLQAEDEADYYCASYDSTSGGVFGSGTRLTVLG
notes: scAb
Kd [13]: 5.2 nM
Kd [7]: 5.19 nM
binding result (tau fragment 1-49): binds
Kd [12]: 5.19 nM
koff [12]: 0.000694 s⁻¹
kon [12]: 133000 M⁻¹ s⁻¹
binding result (mouse tau): no binding
binding result (dGA (tau 297-390) [14]): no binding (tested: 2 nM dGA)
binding result [15]: binds
LoD chemiluminescence detection [16]: 3.33 ng/mL
LoD colourimetric detection [16]: 15 ng/mL
EC50 (read off the curve) [17]: ~4 nM

B5: E2A6 scAb (scFv, not shown: small tags and cut ends)
scFv: QVQLQESGPSLVKPSQTLSLTCTVSGFSLTDWGVAWVRQAPGKALEWLGTMRSGGTTDDNPALKSRLSITRDTSKSQVSLSLSSVTTEDMAMYYCARGYLSGVHYAWGRGLLVTVSSEGKSSGASGESKVDDRVVRTQPSSVSKSLGQSVSITCSGSSSNVGAGNYVGWFQQVPGSAPKLLIYGATNRASGVPARFSGSKSGVTATLTITSLQAEDEADYYCASIDTSRSHIFGSGTRLTVLG
notes: scAb
binding result (dGAE (tau 297-391) [18]): binds
binding result [19]: no binding

B6: S1D12 scAb (scFv, not shown: small tags and cut ends)
scFv: QVQLQESGPSLVKPSQTLSLTCTVSGFSLNNNAVGWVRQAPGKVPESLVGCSSDGTCYYNSALKSRLDITRDTSKNQISLSLSSVTTDDAAVYYCTRGHYSIYGYDYLGTIDYWGPGLLVTVSSEGKSSGASGESKVDDQAVLTQPSSVSGSLGQRVSITCSGSSSNVGGGNSVGWYQHLPGSGLKTIIYDTNSRPSGVPDRFSGSRSGNTATLTINSLQAEDEGDYYCVTGDSTTHDDLVGSGTRLTVLG
notes: scAb
Kd [7]: 0.122 nM
EC50 (read off the curve) [20]: ~0.005 µg/mL
EC50 (read off the curve) [21]: ~1 µg/mL
EC50 (read off the curve) (tau fragment 186-350): ~2 µg/mL
EC50 (read off the curve) [22]: ~0.5 µg/mL
EC50 (read off the curve) (dGAE (tau 297-391) [23]): ~3 µg/mL
EC50 (read off the curve) (tau fragment 337-368 [24]): ~4 µg/mL
Kd [12]: 0.122 nM
koff [12]: 0.00015 s⁻¹
kon [12]: 1.25e+06 M⁻¹ s⁻¹
Kd (dGA (tau 297-390) [1]): 0.344 nM
koff (dGA (tau 297-390) [1]): 0.000418 s⁻¹
kon (dGA (tau 297-390) [1]): 1.21e+06 M⁻¹ s⁻¹
EC50 (read off the curve) (tau peptide 341-353): ~0.8 µg/mL

B7: MD9/MoD9 scAb (scFv, not shown: small tags and cut ends)
scFv: QVRLQESGPSLVKSSQTLSLTCTVSGFSLTRESIAWVRQAPGKVPEWLGGVGIDGTSYYSPALKSRLSITRDTSKSQASLSLSSVATEDTAMYYCARNYIDFEYWGPGLLVTVSSEGKSSGASGESKVDDQAVLTQLSSVSGSLGQRISITCSGSSSNVGIYDVSWFQQLPGSGLRTVIYGTNNRPSGVPDRFSGSRSGNTATLTISSLQSEDEAIYYCAAGDSSTIAVFGSGTRLTVLG
notes: scAb
binding result [25]: binds
binding result (dGAE (tau 297-391) [18]): binds
binding result (dGA (tau 297-390) [26]): binds
binding result (tau fragment 369-390 [27]): binds
binding result (tau fragment 369-391 [28]): binds
